Measured values published in PMC3563690 (The Journal of Cell Biology, 2013).
One block for each molecule: values may come before it.

Legend:
Assay in all cases: immunostaining of cells or tissue
[1] = biological target: T1, HA-tagged mouse MDGA2 (mouse)
T1 sequence (P60755 whole entry, looked up): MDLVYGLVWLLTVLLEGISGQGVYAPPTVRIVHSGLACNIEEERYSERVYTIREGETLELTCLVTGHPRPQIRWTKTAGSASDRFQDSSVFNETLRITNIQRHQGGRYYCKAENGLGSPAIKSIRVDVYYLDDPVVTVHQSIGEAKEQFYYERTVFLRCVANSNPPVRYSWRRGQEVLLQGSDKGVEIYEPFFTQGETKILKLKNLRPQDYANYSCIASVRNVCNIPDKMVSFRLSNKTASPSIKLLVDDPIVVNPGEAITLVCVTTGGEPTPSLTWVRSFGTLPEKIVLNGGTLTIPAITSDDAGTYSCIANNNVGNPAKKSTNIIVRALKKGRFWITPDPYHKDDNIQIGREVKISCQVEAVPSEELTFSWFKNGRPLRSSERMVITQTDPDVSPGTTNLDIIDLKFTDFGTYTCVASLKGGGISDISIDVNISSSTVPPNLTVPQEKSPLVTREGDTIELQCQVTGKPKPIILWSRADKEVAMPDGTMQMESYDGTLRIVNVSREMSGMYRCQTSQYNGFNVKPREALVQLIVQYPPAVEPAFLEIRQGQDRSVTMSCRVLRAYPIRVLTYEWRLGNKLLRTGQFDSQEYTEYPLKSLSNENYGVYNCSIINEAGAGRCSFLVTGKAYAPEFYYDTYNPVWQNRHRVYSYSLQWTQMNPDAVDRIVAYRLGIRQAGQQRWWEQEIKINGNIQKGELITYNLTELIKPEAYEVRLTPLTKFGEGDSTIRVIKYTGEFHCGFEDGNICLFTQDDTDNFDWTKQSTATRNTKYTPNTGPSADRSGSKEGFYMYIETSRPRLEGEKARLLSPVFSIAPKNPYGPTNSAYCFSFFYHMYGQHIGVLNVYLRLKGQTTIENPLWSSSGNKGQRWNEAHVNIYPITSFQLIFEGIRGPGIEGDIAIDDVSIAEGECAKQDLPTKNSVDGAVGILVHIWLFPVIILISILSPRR

[2] = biological target: HA-neurexin1β(−S4) (mouse | rat)
[3] = biological target: T2, extracellular HA-tagged rat MDGA1 (rat, UniProt P85171 19-933)
T2 sequence (looked up): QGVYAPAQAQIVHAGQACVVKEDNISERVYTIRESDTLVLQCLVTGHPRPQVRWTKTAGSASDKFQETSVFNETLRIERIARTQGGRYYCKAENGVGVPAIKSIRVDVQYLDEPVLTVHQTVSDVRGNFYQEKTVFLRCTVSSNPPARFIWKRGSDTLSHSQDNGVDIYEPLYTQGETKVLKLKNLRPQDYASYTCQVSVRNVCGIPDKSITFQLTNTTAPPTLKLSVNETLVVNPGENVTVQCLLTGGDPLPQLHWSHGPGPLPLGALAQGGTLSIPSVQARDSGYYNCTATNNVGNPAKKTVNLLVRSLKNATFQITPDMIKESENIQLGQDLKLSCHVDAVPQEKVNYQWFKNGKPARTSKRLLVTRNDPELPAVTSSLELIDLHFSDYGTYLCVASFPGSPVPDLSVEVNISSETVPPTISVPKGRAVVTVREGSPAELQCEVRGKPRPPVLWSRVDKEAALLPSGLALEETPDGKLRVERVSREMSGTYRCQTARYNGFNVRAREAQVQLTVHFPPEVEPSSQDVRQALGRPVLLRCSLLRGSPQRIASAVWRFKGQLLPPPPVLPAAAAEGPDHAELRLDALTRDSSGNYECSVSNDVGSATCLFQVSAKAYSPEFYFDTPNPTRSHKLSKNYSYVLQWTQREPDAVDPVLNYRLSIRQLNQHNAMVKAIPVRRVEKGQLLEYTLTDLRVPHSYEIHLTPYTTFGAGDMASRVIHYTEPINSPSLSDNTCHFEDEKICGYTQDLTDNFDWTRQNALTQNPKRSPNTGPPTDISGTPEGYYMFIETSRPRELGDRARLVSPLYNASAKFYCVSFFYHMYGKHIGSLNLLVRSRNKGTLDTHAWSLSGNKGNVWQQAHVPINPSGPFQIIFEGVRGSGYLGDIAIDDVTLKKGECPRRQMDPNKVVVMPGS

Kd [1]: 45.9 nM
Kd [2]: 8.4 nM
Molecule: soluble neuroligin-2–Fc fusion protein (from UniProt Q69ZK9 15-676)

Kd [3]: 7.3 nM
B1: soluble neuroligin-2–Fc fusion protein (Fc fusion, UniProt Q69ZK9 15-676, looked up)
chain: QRGGGGPGGGAPGGPGLGLGSLGEERFPVVNTAYGRVRGVRRELNNEILGPVVQFLGVPYATPPLGARRFQPPEAPASWPGVRNATTLPPACPQNLHGALPAIMLPVWFTDNLEAAATYVQNQSEDCLYLNLYVPTEDGPLTKKRDEATLNPPDTDIRDSGKKPVMLFLHGGSYMEGTGNMFDGSVLAAYGNVIVVTLNYRLGVLGFLSTGDQAAKGNYGLLDQIQALRWLSENIAHFGGDPERITIFGSGAGASCVNLLILSHHSEGLFQKAIAQSGTAISSWSVNYQPLKYTRLLAAKVGCDREDSTEAVECLRRKSSRELVDQDVQPARYHIAFGPVVDGDVVPDDPEILMQQGEFLNYDMLIGVNQGEGLKFVEDSAESEDGVSASAFDFTVSNFVDNLYGYPEGKDVLRETIKFMYTDWADRDNGEMRRKTLLALFTDHQWVAPAVATAKLHADYQSPVYFYTFYHHCQAEGRPEWADAAHGDELPYVFGVPMVGATDLFPCNFSKNDVMLSAVVMTYWTNFAKTGDPNQPVPQDTKFIHTKPNRFEEVVWSKFNSKEKQYLHIGLKPRVRDNYRANKVAFWLELVPHLHNLHTELFTTTTRLPPYATRWPPRTPGPGTSGTRRPPPPATLPPESDIDLGPRAYDRFPGDSRDYSTE
